Experimental data as given in publication PMC4357705, “Human Rap1 modulates TRF2 attraction to telomeric DNA”.

Tests used:
[1] = biological target: Rap1 without His-tag, labelled with Alexa Fluor 488 (human) (UniProt Q9NYB0); test: fluorescence polarisation; fluorescence anisotropy; TRF2noHis titrated into 100 nM Rap1noHis labelled with Alexa Fluor 488; 50 mM NaCl, 50 mM sodium phosphate pH 7.0, 25 C; concentration as TRF2 dimer
[2] = biological target: Rap1, full-length, N-terminal His6-tag, labelled with Alexa Fluor 594 (human) (UniProt Q9NYB0); test: fluorescence polarisation; fluorescence anisotropy; TRF2 titrated into 100 nM Rap1 labelled with Alexa Fluor 594; 50 mM NaCl, 50 mM sodium phosphate pH 7.0 with 1 mM DTT; concentration as TRF2 dimer
[3] = biological target: Rap1, full-length, N-terminal His6-tag, labelled with Alexa Fluor 594 (human) (UniProt Q9NYB0); test: fluorescence polarisation; fluorescence anisotropy; TRF2 titrated into 100 nM Rap1 labelled with Alexa Fluor 594; PBST (Phosphate Buffered Saline with Tween 20, ~140 mM NaCl); concentration as TRF2 dimer
[4] = biological target: Telomeric Repeat binding Factor 2 (TRF2), full-length, N-terminal His6-tag (human); test: SPR; TRF2 immobilised by amine coupling on ProteOn GLC chip; Rap1 as analyte (methods: 80-5 nM; key of Figure S4A: 160-10 nM); PBST; 240 s injection at 100 ul/min, 1200 s dissociation; equilibrium responses fitted with a simple bimolecular equilibrium model
Rap1 [5] = biological target: T1, Rap1 (human, UniProt Q9NYB0 1-399); test: EMSA; up to Rap1:DNA 40:1; FA: 50 mM NaCl, 50 mM sodium phosphate pH 7.0, 25 °C, 7.5 nM DNA; EMSA: same buffer, 15 min on ice, 5% (or 4%) PAGE in 0.25x TBE at 4 °C; SPR: PBST; conditions: protein: recombinant; tags: N-terminal His6; label: Alexa Fluor 488 at 3' end of one strand; blunt
T1 sequence: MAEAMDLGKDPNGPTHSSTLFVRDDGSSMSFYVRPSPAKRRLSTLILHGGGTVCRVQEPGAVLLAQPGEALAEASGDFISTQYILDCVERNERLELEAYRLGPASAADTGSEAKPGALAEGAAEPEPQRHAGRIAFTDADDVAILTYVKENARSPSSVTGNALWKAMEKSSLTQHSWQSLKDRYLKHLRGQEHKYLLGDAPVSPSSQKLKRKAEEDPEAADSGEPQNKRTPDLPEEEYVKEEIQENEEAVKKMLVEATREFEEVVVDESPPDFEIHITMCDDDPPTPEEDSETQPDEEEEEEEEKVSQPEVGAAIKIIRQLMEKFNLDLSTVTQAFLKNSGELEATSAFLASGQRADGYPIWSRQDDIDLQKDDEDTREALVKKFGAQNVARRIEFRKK

Rap1 [6] = biological target: T1, Rap1; test: fluorescence anisotropy; FA: 50 mM NaCl, 50 mM sodium phosphate pH 7.0, 25 °C, 7.5 nM DNA; EMSA: same buffer, 15 min on ice, 5% (or 4%) PAGE in 0.25x TBE at 4 °C; SPR: PBST; conditions: protein: recombinant; tags: N-terminal His6; label: Alexa Fluor 488 (FA); 5' biotin on S6 in SPR; 3' overhang 6 nt
Rap1 [7] = biological target: T1, Rap1; test: SPR; PBST; FA: 50 mM NaCl, 50 mM sodium phosphate pH 7.0, 25 °C, 7.5 nM DNA; EMSA: same buffer, 15 min on ice, 5% (or 4%) PAGE in 0.25x TBE at 4 °C; SPR: PBST; conditions: protein: recombinant; tags: N-terminal His6; label: 5' biotin on S6; blunt

## TRF2 without His-tag (natural protein)
[1]
  Kd: 49 nM

## Telomeric Repeat binding Factor 2 (TRF2), full-length, N-terminal His6-tag (natural protein)
[2]
  Kd: 44 nM
[3]
  Kd: 64 nM

B1: Repressor activator protein 1 (Rap1), full-length, N-terminal His6-tag (natural protein)
chain: MAEAMDLGKDPNGPTHSSTLFVRDDGSSMSFYVRPSPAKRRLSTLILHGGGTVCRVQEPGAVLLAQPGEALAEASGDFISTQYILDCVERNERLELEAYRLGPASAADTGSEAKPGALAEGAAEPEPQRHAGRIAFTDADDVAILTYVKENARSPSSVTGNALWKAMEKSSLTQHSWQSLKDRYLKHLRGQEHKYLLGDAPVSPSSQKLKRKAEEDPEAADSGEPQNKRTPDLPEEEYVKEEIQENEEAVKKMLVEATREFEEVVVDESPPDFEIHITMCDDDPPTPEEDSETQPDEEEEEEEEKVSQPEVGAAIKIIRQLMEKFNLDLSTVTQAFLKNSGELEATSAFLASGQRADGYPIWSRQDDIDLQKDDEDTREALVKKFGAQNVARRIEFRKK
[4]
  Kd: 44 nM

B2: R2 (dsDNA)
DNA 1: GTTAGGGTTAGGGTTAG
DNA 2: CTAACCCTAACCCTAAC
modifications: 3'-C6 aminoalkyl linker on one strand
Rap1 [5]
  binding result: no binding

B3: R5 (dsDNA)
DNA 1: GTTAGGGTTAGGGTTAGGGTTAGGGTTAGGGTTAG
DNA 2: CTAACCCTAACCCTAACCCTAACCCTAACCCTAAC
modifications: 3'-C6 aminoalkyl linker on one strand
Rap1 [5]
  binding result: no binding

B4: Overhang_SR2 (mixed)
DNA 1: CTAACTTAGGGTTAGGGTTAGGGTTAG
DNA 2: CTAACCCTAACCCTAAGTTAG
Rap1 [6]
  binding result: no binding

B5: SR2 (dsDNA)
DNA 1: CTAACTTAGGGTTAGGGTTAG
DNA 2: CTAACCCTAACCCTAAGTTAG
Rap1 [7]
  binding result: no binding
